Measurements taken from patent publication US20220363770A1 (Amgen, published 2022).
Substitutions are numbered along the chain they refer to. Each block holds one binder with its values, some of them ahead of it.

Assays:
human PAC1 receptor = biological target: T1, human PAC1 receptor (human, UniProt P41586 24-468); assay: cell-based or functional assay
T1 sequence: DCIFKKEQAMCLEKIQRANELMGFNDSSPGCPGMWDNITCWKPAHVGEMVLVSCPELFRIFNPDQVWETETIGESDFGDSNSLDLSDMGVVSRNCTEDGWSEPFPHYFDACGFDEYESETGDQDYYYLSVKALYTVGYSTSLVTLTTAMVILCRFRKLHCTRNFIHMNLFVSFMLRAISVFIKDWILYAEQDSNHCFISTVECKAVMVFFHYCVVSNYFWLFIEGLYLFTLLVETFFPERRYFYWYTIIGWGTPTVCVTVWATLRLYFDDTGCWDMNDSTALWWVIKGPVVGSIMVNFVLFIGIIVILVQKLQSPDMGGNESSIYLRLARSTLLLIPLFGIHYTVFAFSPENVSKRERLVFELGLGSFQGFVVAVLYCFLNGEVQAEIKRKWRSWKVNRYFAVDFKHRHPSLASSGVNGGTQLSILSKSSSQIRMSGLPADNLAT

human CGRP receptor = human CGRP receptor (human, UniProt Q16602 23-461; O60894 27-148); assay: cell-based or functional assay
Chain of human CGRP receptor (Q16602 23-461 limits assumed, chain 1 of 2): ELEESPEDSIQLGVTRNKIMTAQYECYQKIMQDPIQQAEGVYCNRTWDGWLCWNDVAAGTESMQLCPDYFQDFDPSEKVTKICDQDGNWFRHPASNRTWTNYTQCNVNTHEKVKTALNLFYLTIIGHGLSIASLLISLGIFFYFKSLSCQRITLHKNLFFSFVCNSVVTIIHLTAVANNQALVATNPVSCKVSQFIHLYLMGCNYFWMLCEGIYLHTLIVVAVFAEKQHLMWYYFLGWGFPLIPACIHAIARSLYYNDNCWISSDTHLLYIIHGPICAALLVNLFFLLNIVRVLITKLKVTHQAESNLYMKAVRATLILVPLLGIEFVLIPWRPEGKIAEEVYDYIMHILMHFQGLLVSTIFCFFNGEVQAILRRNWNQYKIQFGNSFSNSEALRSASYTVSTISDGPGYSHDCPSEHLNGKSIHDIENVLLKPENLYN
Chain of human CGRP receptor (O60894 27-148 limits assumed, chain 2 of 2): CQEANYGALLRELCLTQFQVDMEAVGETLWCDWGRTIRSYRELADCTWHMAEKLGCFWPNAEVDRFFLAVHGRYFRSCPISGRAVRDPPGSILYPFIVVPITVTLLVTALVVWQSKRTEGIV

B1: iPS:454765 (bispecific antibody, human IgG1, kappa, lambda, N297G)
light 1: QSVLTQPPSVSAAPGQKVTISCSGSYSNIGRYSVSWYQQLPGTAPKLLIYDNNKRPSGIPDRFSGSKSGTSATLGITGLQTGDEADYYCGTWDSRLSAVVFGGGTKLTVLGQPKAAPSVTLFPPSSEELQANKATLVCLISDFYPGAVTVAWKADSSPVKAGVETTTPSKQSNNKYAAKSYLSLTPEQWKSHRSYSCQVTHEGSTVEKTVAPTECS
heavy 1: QVQLVESGGGVVQPGRSLRLSCAASGFTFSSFGMHWVRQAPGKGLEWVAVISFDGSIKYSVDSVKGRFTISRDNSKNTLFLQMNSLRAEDTAVYYCARDRLNYYESSGYYHYKYYGMAVWGQGTTVTVSSASTKGPSVFPLAPSSKSTSGGTAALGCLVKDYFPEPVTVSWNSGALTSGVHTFPAVLQSSGLYSLESVVTVPSSSLGTQTYICNVNHKPSNTKVDKKVEPKSCDKTHTCPPCPAPELLGGPSVFLFPPKPKDTLMISRTPEVTCVVVDVSHEDPEVKFNWYVDGVEVHNAKTKPCEEQYGSTYRCVSVLTVLHQDWLNGKEYKCKVSNKALPAPIEKTISKAKGQPREPQVYTLPPSRKKMTKNQVSLTCLVKGFYPSDIAVEWESNGQPENNYKTTPPVLKSDGSFFLYSKLTVDKSRWQQGNVFSCSVMHEALHNHYTQKSLSLSPGK
light 2: EIVLTQSPATLSLSPGERATLSCRASQSVGRSLHWYQQKPGQAPRLLIKYASQSLSGIPARFSGSGSGTDFTLTISSLEPEDFAVYYCHQSSRLPFTFGPGTKVDIKRTVAAPSVFIFPPSDEQLKSGTASVVCLLNNFYPREAKVQWKVDNALQSGNSQESVTEQDSKDSTYSLESTLTLSKADYEKHKVYACEVTHQGLSSPVTKSFNRGEC
heavy 2: not shown
Fold-improvement over 29G4v22 Ab (human PAC1 receptor): 7.8 fold
IC50 (human PAC1 receptor): 0.71 nM
Fold-improvement over 4E4 Ab (human CGRP receptor): 1.6 fold
IC50 (human CGRP receptor): 0.34 nM

B2: iPS:454785 (bispecific antibody, human IgG1, kappa, lambda, N297G)
light 1: B1 light 1
heavy 1: B1 heavy 1
light 2: B1 light 2 with Q27K, R31W
heavy 2: not shown
Fold-improvement over 29G4v22 Ab (human PAC1 receptor): 4.6 fold
IC50 (human PAC1 receptor): 1.43 nM
Fold-improvement over 4E4 Ab (human CGRP receptor): 1.1 fold
IC50 (human CGRP receptor): 0.47 nM

B4: iPS:454783 (bispecific antibody, human IgG1, kappa, lambda, N297G)
light 1: B1 light 1
heavy 1: B1 heavy 1
light 2: B1 light 2 with Q27K, R31W
heavy 2: not shown
Fold-improvement over 29G4v22 Ab (human PAC1 receptor): 9.1 fold
IC50 (human PAC1 receptor): 0.62 nM
Fold-improvement over 4E4 Ab (human CGRP receptor): 1.1 fold
IC50 (human CGRP receptor): 0.48 nM

B6: iPS:454793 (bispecific antibody, human IgG1, kappa, lambda, N297G)
light 1: B1 light 1 with Y26R, R31I, Y32K, S33A
heavy 1: B1 heavy 1
light 2: B1 light 2 with Q27K, R31Q
heavy 2: not shown
Fold-improvement over 29G4v22 Ab (human PAC1 receptor): 6 fold
IC50 (human PAC1 receptor): 1.09 nM
Fold-improvement over 4E4 Ab (human CGRP receptor): 1.3 fold
IC50 (human CGRP receptor): 0.39 nM

B9: iPS:454771 (bispecific antibody, human IgG1, kappa, lambda, N297G)
light 1: B1 light 1
heavy 1: B1 heavy 1
light 2: B1 light 2 with Q27K
heavy 2: not shown
Fold-improvement over 29G4v22 Ab (human PAC1 receptor): 7.6 fold
IC50 (human PAC1 receptor): 0.84 nM
Fold-improvement over 4E4 Ab (human CGRP receptor): 1.4 fold
IC50 (human CGRP receptor): 0.37 nM

B10: iPS:454791 (bispecific antibody, human IgG1, kappa, lambda, N297G)
light 1: B1 light 1
heavy 1: B1 heavy 1
light 2: B1 light 2 with Q27K, R31Y
heavy 2: not shown
Fold-improvement over 29G4v22 Ab (human PAC1 receptor): 7.1 fold
IC50 (human PAC1 receptor): 0.79 nM
Fold-improvement over 4E4 Ab (human CGRP receptor): 1.2 fold
IC50 (human CGRP receptor): 0.44 nM

B11: iPS:454789 (bispecific antibody, human IgG1, kappa, lambda, N297G)
light 1: B1 light 1
heavy 1: B1 heavy 1
light 2: B1 light 2 with Q27K, R31W
heavy 2: not shown
Fold-improvement over 29G4v22 Ab (human PAC1 receptor): 5.5 fold
IC50 (human PAC1 receptor): 1.19 nM
Fold-improvement over 4E4 Ab (human CGRP receptor): 1.7 fold
IC50 (human CGRP receptor): 0.29 nM

B15: iPS:454767 (bispecific antibody, human IgG1, kappa, lambda, N297G)
light 1: B1 light 1
heavy 1: B1 heavy 1
light 2: B1 light 2
heavy 2: not shown
Fold-improvement over 29G4v22 Ab (human PAC1 receptor): 9 fold
IC50 (human PAC1 receptor): 0.71 nM
Fold-improvement over 4E4 Ab (human CGRP receptor): 1.2 fold
IC50 (human CGRP receptor): 0.41 nM

B16: iPS:454769 (bispecific antibody, human IgG1, kappa, lambda, N297G)
light 1: B1 light 1
heavy 1: B1 heavy 1
light 2: B1 light 2 with Q27K
heavy 2: not shown
Fold-improvement over 29G4v22 Ab (human PAC1 receptor): 7.2 fold
IC50 (human PAC1 receptor): 0.78 nM
Fold-improvement over 4E4 Ab (human CGRP receptor): 1.7 fold
IC50 (human CGRP receptor): 0.32 nM

B18: iPS:454773 (bispecific antibody, human IgG1, kappa, lambda, N297G)
light 1: B1 light 1
heavy 1: B1 heavy 1
light 2: B1 light 2 with Q27K, S28A, R31W
heavy 2: not shown
Fold-improvement over 29G4v22 Ab (human PAC1 receptor): 7.7 fold
IC50 (human PAC1 receptor): 0.83 nM
Fold-improvement over 4E4 Ab (human CGRP receptor): 0.9 fold
IC50 (human CGRP receptor): 0.57 nM

B19: iPS:454787 (bispecific antibody, human IgG1, kappa, lambda, N297G)
light 1: B1 light 1
heavy 1: B1 heavy 1
light 2: B1 light 2 with Q27K, R31W
heavy 2: not shown
Fold-improvement over 29G4v22 Ab (human PAC1 receptor): 9.5 fold
IC50 (human PAC1 receptor): 0.69 nM
Fold-improvement over 4E4 Ab (human CGRP receptor): 1.8 fold
IC50 (human CGRP receptor): 0.27 nM

B22: iPS:454775 (bispecific antibody, human IgG1, kappa, lambda, N297G)
light 1: B1 light 1
heavy 1: B1 heavy 1
light 2: B1 light 2 with Q27K, R31W
heavy 2: not shown
Fold-improvement over 29G4v22 Ab (human PAC1 receptor): 6.7 fold
IC50 (human PAC1 receptor): 0.83 nM
Fold-improvement over 4E4 Ab (human CGRP receptor): 1.4 fold
IC50 (human CGRP receptor): 0.38 nM

Now from value to binder:

Fold-improvement over 29G4v22 Ab (human PAC1 receptor): 4.1 fold
IC50 (human PAC1 receptor): 1.59 nM
Fold-improvement over 4E4 Ab (human CGRP receptor): 1.6 fold
IC50 (human CGRP receptor): 0.32 nM
B3: iPS:454799 (bispecific antibody, human IgG1, kappa, lambda, N297G)
light 1: B1 light 1 with Y26R, R31I, Y32K, S33A
heavy 1: B1 heavy 1
light 2: B1 light 2 with Q27K, R31Q
heavy 2: not shown

Fold-improvement over 29G4v22 Ab (human PAC1 receptor): 8.7 fold
IC50 (human PAC1 receptor): 0.92 nM
Fold-improvement over 4E4 Ab (human CGRP receptor): 1.2 fold
IC50 (human CGRP receptor): 0.44 nM
B5: iPS:454803 (bispecific antibody, human IgG1, kappa, lambda, N297G)
light 1: B1 light 1 with Y26R, R31I, Y32K, S33A
heavy 1: B1 heavy 1
light 2: B1 light 2 with Q27K, R31W
heavy 2: not shown

Fold-improvement over 29G4v22 Ab (human PAC1 receptor): 4.4 fold
IC50 (human PAC1 receptor): 1.82 nM
Fold-improvement over 4E4 Ab (human CGRP receptor): 1.2 fold
IC50 (human CGRP receptor): 0.44 nM
B7: iPS:454801 (bispecific antibody, human IgG1, kappa, lambda, N297G)
light 1: B1 light 1 with Y26R, R31I, Y32K, S33A
heavy 1: B1 heavy 1
light 2: B1 light 2 with Q27K, R31Q
heavy 2: not shown

Fold-improvement over 29G4v22 Ab (human PAC1 receptor): 2.8 fold
IC50 (human PAC1 receptor): 2.85 nM
Fold-improvement over 4E4 Ab (human CGRP receptor): 1 fold
IC50 (human CGRP receptor): 0.53 nM
B8: iPS:454811 (bispecific antibody, human IgG1, kappa, lambda, N297G)
light 1: B1 light 1 with Y26R, R31I, Y32K, S33A
heavy 1: B1 heavy 1
light 2: EIVLTQSPATLSLSPGERATLSCRASRAVSNLHWYQQKPGQAPRLLIKYASQSLSGIPARFSGSGSGTDFTLTISSLEPEDFAVYYCHQSSYLPFTFGPGTKVDIKRTVAAPSVFIFPPSDEQLKSGTASVVCLLNNFYPREAKVQWKVDNALQSGNSQESVTEQDSKDSTYSLESTLTLSKADYEKHKVYACEVTHQGLSSPVTKSFNRGEC
heavy 2: not shown

Fold-improvement over 29G4v22 Ab (human PAC1 receptor): 5.4 fold
IC50 (human PAC1 receptor): 1.21 nM
Fold-improvement over 4E4 Ab (human CGRP receptor): 2.6 fold
IC50 (human CGRP receptor): 0.2 nM
B12: iPS:454797 (bispecific antibody, human IgG1, kappa, lambda, N297G)
light 1: B1 light 1 with Y26R, R31I, Y32K, S33A
heavy 1: B1 heavy 1
light 2: B1 light 2 with Q27R, R31L, S32A, R93F
heavy 2: not shown

Fold-improvement over 29G4v22 Ab (human PAC1 receptor): 5.4 fold
IC50 (human PAC1 receptor): 1.48 nM
Fold-improvement over 4E4 Ab (human CGRP receptor): 0.9 fold
IC50 (human CGRP receptor): 0.56 nM
B13: iPS:454807 (bispecific antibody, human IgG1, kappa, lambda, N297G)
light 1: B1 light 1 with Y26R, R31I, Y32K, S33A
heavy 1: B1 heavy 1
light 2: B1 light 2 with Q27K, R31Q
heavy 2: not shown

Fold-improvement over 29G4v22 Ab (human PAC1 receptor): 4 fold
IC50 (human PAC1 receptor): 2.01 nM
Fold-improvement over 4E4 Ab (human CGRP receptor): 0.8 fold
IC50 (human CGRP receptor): 0.64 nM
B14: iPS:454809 (bispecific antibody, human IgG1, kappa, lambda, N297G)
light 1: B1 light 1 with Y26R, R31I, Y32K, S33A
heavy 1: B1 heavy 1
light 2: B1 light 2 with Q27K, S28A, R31F, R93F
heavy 2: not shown

Fold-improvement over 29G4v22 Ab (human PAC1 receptor): 6.9 fold
IC50 (human PAC1 receptor): 1.16 nM
Fold-improvement over 4E4 Ab (human CGRP receptor): 1 fold
IC50 (human CGRP receptor): 0.52 nM
B17: iPS:454805 (bispecific antibody, human IgG1, kappa, lambda, N297G)
light 1: B1 light 1 with Y26R, R31I, Y32K, S33A
heavy 1: B1 heavy 1
light 2: B1 light 2 with Q27K, R31Q
heavy 2: not shown

Fold-improvement over 29G4v22 Ab (human PAC1 receptor): 2 fold
IC50 (human PAC1 receptor): 3.26 nM
Fold-improvement over 4E4 Ab (human CGRP receptor): 1.4 fold
IC50 (human CGRP receptor): 0.37 nM
B20: iPS:454795 (bispecific antibody, human IgG1, kappa, lambda, N297G)
light 1: B1 light 1 with Y26R, R31I, Y32K, S33A
heavy 1: B1 heavy 1
light 2: B1 light 2 with Q27K, S28A, G30W, R31H, S32N, R93M
heavy 2: not shown

Fold-improvement over 29G4v22 Ab (human PAC1 receptor): 9.9 fold
IC50 (human PAC1 receptor): 0.81 nM
Fold-improvement over 4E4 Ab (human CGRP receptor): 0.8 fold
IC50 (human CGRP receptor): 0.61 nM
B21: iPS:454813 (bispecific antibody, human IgG1, kappa, lambda, N297G)
light 1: B1 light 1 with Y26R, R31I, Y32K, S33A
heavy 1: B1 heavy 1
light 2: B1 light 2 with Q27K
heavy 2: not shown
